Measured values from the supplement of paper PMC10201428.
± gives the standard deviation of the averaged measurements.

Key:
[1] = system: VchCAST RNA-guided transposition machinery (E. coli BL21(DE3) host, lacZ target); assay: relative integration efficiency (T-RL orientation) vs wild-type transposon end (log2 (normalized fold change)); transposon end mutated: right end (5 bp flank + 75 bp right end); higher = more efficient transposition
Outline: (§1)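 Barcode abundances in input plasmids and in genomic integration junctions were obtained by PCR amplification and Illumina sequencing. These came from E. coli BL21(DE3) co-transformed with a T7-driven effector plasmid and a pUC57 donor carrying 1549 left-end or 1849 right-end transposon variants, then plated with 0.1 mM IPTG at 37°C for 18 h. Relative integration efficiency is the output/input fold change, normalised to reference barcodes and log-transformed.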

[2] = system: VchCAST RNA-guided transposition machinery (E. coli BL21(DE3) host, lacZ target); assay: relative integration efficiency (T-LR orientation) vs wild-type transposon end (log2 (normalized fold change)); transposon end mutated: right end (5 bp flank + 75 bp right end); higher = more efficient transposition
Outline: as §1

Row | Sequence | relative integration efficiency (log2) [1] | relative integration efficiency (log2) [2]
1 | ACATTTGTTGATACAACCATAAAATGATAATTACACCCATAAATTGATAATTAAAACACCCATAAATTGATATTGCCTCTGATCATAGTCAGACCAACATTGCTACGACCCGTATTCGCACCGACAC | -0.399 ± 0.27 | 0.089 ± 0.23
2 | ACATTTGTTGATACAACCATAAAATGATAATTAACAAACGCCCGGTCGCCGGCTCACACCCATAAATTGATATTGCCTCTGATCATAGTCAGACCAACATTGCTACGACCCGTATTCGCACCGACAC | -3.28 ± 0.31 | -0.997 ± 0.22
3 | ACATTTGTTGATACAACCATAAAATGATAATATCACCCATAAATTGATAATATTCACACCCATAAATTGATATTCGCTCTGATCATAGTCAGACCAACATTGCTACGACCCGTATTCGCACCGACAC | -0.471 ± 0.0068 | -0.639 ± 0.0008
4 | ACATTTGTTGATACAACCATATATTGATATCTCCAACCATATATTGATATCTCTCACAACCATAAAATGATAATTACTCTGATCATAGTCAGACCAACATTGCTACGACCCGTATTCGCACCGACAC | -0.562 ± 0.043 | -0.08 ± 0.5
5 | ACATTTGTTGATACAACCATAAAATGATAATTACACCCATAAATTGATAATTATCACACCCATAAATTGATATTGCCTCTGACAACCATAAAATGATAATTATCATAGTCAGACCAAGCACCGACAC | -0.213 ± 0.28 | -0.0996 ± 0.32
6 | ACATTTGTTGATACAACCATAAAGTGATATTTACACCCATAAATTGATAATTATCACAACCATATATTGATATCTCCTCTGATCATAGTCAGACCAACATTGCTACGACCCGTATTCGCACCGACAC | -0.382 ± 0.084 | -0.0754 ± 0.42
7 | ACATTTGTTGATACAACCATAAAATGATATAATCACCCATAAATTGATATAATTCACACCCATAAATTGATAAACGCTCTGATCATAGTCAGACCAACATTGCTACGACCCGTATTCGCACCGACAC | -1.01 ± 0.15 | 0.045 ± 0.14
8 | ACATTTGTTGATACAACCATTAAATGGTAATTCCACCCAAAAATTGATAATTATCACACCCAATTTAACTATAACGCTCTGATCATAGTCAGACCAACATTGCTACGACCCGTATTCGCACCGACAC | -2.14 ± 0.21 | 0.883 ± 0.18
9 | ACATTTGTTGATACAACCATAAAATGATAATTACAACCATAAAGTGATATTTATCACAACCATAAGTTGATATTTTCTCTGATCATAGTCAGACCAACATTGCTACGACCCGTATTCGCACCGACAC | -0.0894 ± 0.09 | -0.251 ± 0.14
10 | ACATTTGTTGATACAACCATATATTGATATCTCCAACCATAAAGTGATATTTATCACAACCATAAGTTGATATTTTCTCTGATCATAGTCAGACCAACATTGCTACGACCCGTATTCGCACCGACAC | 0.261 ± 0.2 | 0.0054 ± 0.55
11 | ACATTTGTTGATACAACCATAAGTTGATATTTTCAACCATAAAGTGATATTTATCACAACCATAAGTTGATATTTTCTCTGATCATAGTCAGACCAACATTGCTACGACCCGTATTCGCACCGACAC | 0.119 ± 0.067 | -0.246 ± 0.14
12 | ACATTTGTTGATACACCCATAAATTGATATTGCCAACCATATATTGATATCTCTCAGTGGGTATTTAACTATAACGCTCTGATCATAGTCAGACCAACATTGCTACGACCCGTATTCGCACCGACAC | -1.7 ± 0.32 | 2.26 ± 0.088
13 | ACATTTGTTGATACAACCATAAAATGATAATTAATACACCCATAAATTGATAATTATCACACCCATAAATTGATATTGCCTCTGATCATAGTCAGACCAACATTGCTACGACCCGTATTCGCACCGA | -3.47 ± 0.4 | -0.393 ± 0.24
14 | ACATTTGTTGATACAACCATAAAATGATAATTAGAAACCATACGCTGAAATAATCACACCCATAAATTGATATTGCCTCTGATCATAGTCAGACCAACATTGCTACGACCCGTATTCGCACCGACAC | -3.5 ± 0.081 | -1.54 ± 0.65
15 | ACATTTGTTGATACAACCATAAAATTATTATTACACCCATTAATTGATAATTATCACACCCAATTTAACTATAACGCTCTGATCATAGTCAGACCAACATTGCTACGACCCGTATTCGCACCGACAC | -2.35 ± 0.18 | 1.15 ± 0.09
16 | ACATTTGTTGATACAACCATAAAATGATAATTACACCCATAAATTGATTTTTATCACACCCATAAATTGATATTGCCTCTGATCATAGTCAGACCAACATTGCTACGACCCGTATTCGCACCGACAC | -0.629 ± 0.28 | 0.0005 ± 0.35
17 | ACATTTGTTGATAAAACCATAAAATGATAATTAGACCCATAAATTGATAATTATCACACCCATAAATTGATATTGCCTCTGATCATAGTCAGACCAACATTGCTACGACCCGTATTCGCACCGACAC | -1.09 ± 0.15 | -1.02 ± 0.36
18 | ACATTTGTTGATACACCCATAAATTGATATTGCCAACCATAAAGTGATATTTATCACAACCATAAAGTGATATTTACTCTGATCATAGTCAGACCAACATTGCTACGACCCGTATTCGCACCGACAC | -0.684 ± 0.13 | -0.426 ± 0.4

Row | Sequence | relative integration efficiency (log2) [1] | relative integration efficiency (log2) [2]
19 | ACATTGGTGGATACAACCATAAAATGATAATTACACCCATAAATGGATAATTATCACACCCAATTTAACTATAACGCTCTGATCATAGTCAGACCAACATTGCTACGACCCGTATTCGCACCGACAC | -7.53 ± 0.13 | -5.04 ± 0.46
20 | ACATTTGTTGATACAACCCTAAAATGATAATTACACCCATAAATTGATCATTATCACACCCAATTTAACTATAACGCTCTGATCATAGTCAGACCAACATTGCTACGACCCGTATTCGCACCGACAC | -3 ± 0.31 | 0.357 ± 0.061
21 | ACATTTGTTGATACAACCATAAAATGATAATGCCACCCATAAATTGATAATGCTCACACCCATAAATTGATATTTACTCTGATCATAGTCAGACCAACATTGCTACGACCCGTATTCGCACCGACAC | -0.867 ± 0.17 | -0.0326 ± 0.2
22 | ACATTTGTCGATCCAACCATAAAATGATAATTACACCCATAAATTCATAATTATCACACCCAATTTAACTATAACGCTCTGATCATAGTCAGACCAACATTGCTACGACCCGTATTCGCACCGACAC | -2.45 ± 0.51 | 0.641 ± 0.68
23 | ACATTTGTTGATACAACCATACCCGGATAATTACACCCATAAATTGATAATTATCACACCCATAAATTGATATTGCCTCTGATCATAGTCAGACCAACATTGCTACGACCCGTATTCGCACCGACAC | -3.77 ± 0.26 | -4.39 ± 0.99
24 | ACATTTGTTGATACAACCATATATTGATATCTCCAACCATAAAGTGATATTTATCACAACCATAAAGTGATATTTACTCTGATCATAGTCAGACCAACATTGCTACGACCCGTATTCGCACCGACAC | -0.409 ± 0.1 | -0.451 ± 0.11
25 | ACATTTGTTGATACAACCATAAAATGATAATTACACCCATAAATTGATAATTATCACACCCATAAATTGATATTCGGACTGATCATAGTCAGACCAACATTGCTACGACCCGTATTCGCACCGACAC | -0.0234 ± 0.0045 | 0.106 ± 0.13
26 | ACATTTGTTGATACCACCATAAAATGGTAATTACACCCATAAATTGATAATTATCACACCCAATTTAACTATAACGCTCTGATCATAGTCAGACCAACATTGCTACGACCCGTATTCGCACCGACAC | -1.38 ± 0.13 | 2.15 ± 0.17
27 | ACATTTGTTGATACACCCATAAATTGATAATTACAACCATAAAGTGATATTTATCAGTGGGTATTTAACTATAACGCTCTGATCATAGTCAGACCAACATTGCTACGACCCGTATTCGCACCGACAC | -0.744 ± 0.28 | 2.08 ± 0.1
28 | ACATTTGTTGATACAACCATAAAATGATAATTACACCCATAAATTGATAATTATACACAAACGCCCGGTCGCGGTAAGAGGATCATAGTCAGACCAACATTGCTACGACCCGTATTCGCACCGACAC | -1.49 ± 0.49 | 2.63 ± 0.19
29 | ACATTTGTTGATACAACCATAATTTGATAATTACACCCATAAATTGATAATTATCACACCCATAAATTGATATTGCCTCTGATCATAGTCAGACCAACATTGCTACGACCCGTATTCGCACCGACAC | -0.314 ± 0.1 | -0.168 ± 0.26
30 | ACATTTGTTGATACAACCATAAAATGATAATTTCACCCATAAATTGATAATTTTCACACCCATAAATTGATATTGGCTCTGATCATAGTCAGACCAACATTGCTACGACCCGTATTCGCACCGACAC | -0.335 ± 0.13 | -0.0323 ± 0.56
31 | ACATTTGTTGATACAACCATAAGTTGATATTTTCAACCATATATTGATATCTCTCACAACCATAAGTTGATATTTTCTCTGATCATAGTCAGACCAACATTGCTACGACCCGTATTCGCACCGACAC | -0.118 ± 0.16 | -0.0553 ± 0.32
32 | ACATTTGTTGATACAACCATAAAATGATAATTACACCCATAAATTGATAATTATCACACCCATAAATTGATATTGCCTCTGATCATTTGCATAAAAATTCATCTAGTCAGACCAACAGCACCGACAC | -0.15 ± 0.36 | -0.0028 ± 0.22
33 | ACATTTGTTGATACAACCATAAAATGATTATTACACCCATAAATTGATTATTATCACACCCATAAATTGATTTTGCCTCTGATCATAGTCAGACCAACATTGCTACGACCCGTATTCGCACCGACAC | -0.91 ± 0.14 | 0.0804 ± 0.34
34 | ACATTTGTTGATACAACCATAAAATGATAATTAGAAACCATAATTGATAATTATCACACCCATAAATTGATATTGCCTCTGATCATAGTCAGACCAACATTGCTACGACCCGTATTCGCACCGACAC | -3.59 ± 0.08 | -2.38 ± 0.52
35 | ACATTTGTTGATACAACCATAAAATGATAATTACACCCATAAATTGATAATTATCACACCCATAAATTGATATTGCCTCTTTATGCAGGACGACGTACGCGTTCCATATAAACCTGTGCACCGACAC | 0.021 ± 0.25 | -0.104 ± 0.19
